In PMC4900677:

Test system: T1, IFI16 (Homo sapiens), Q16666-2
T1 sequence: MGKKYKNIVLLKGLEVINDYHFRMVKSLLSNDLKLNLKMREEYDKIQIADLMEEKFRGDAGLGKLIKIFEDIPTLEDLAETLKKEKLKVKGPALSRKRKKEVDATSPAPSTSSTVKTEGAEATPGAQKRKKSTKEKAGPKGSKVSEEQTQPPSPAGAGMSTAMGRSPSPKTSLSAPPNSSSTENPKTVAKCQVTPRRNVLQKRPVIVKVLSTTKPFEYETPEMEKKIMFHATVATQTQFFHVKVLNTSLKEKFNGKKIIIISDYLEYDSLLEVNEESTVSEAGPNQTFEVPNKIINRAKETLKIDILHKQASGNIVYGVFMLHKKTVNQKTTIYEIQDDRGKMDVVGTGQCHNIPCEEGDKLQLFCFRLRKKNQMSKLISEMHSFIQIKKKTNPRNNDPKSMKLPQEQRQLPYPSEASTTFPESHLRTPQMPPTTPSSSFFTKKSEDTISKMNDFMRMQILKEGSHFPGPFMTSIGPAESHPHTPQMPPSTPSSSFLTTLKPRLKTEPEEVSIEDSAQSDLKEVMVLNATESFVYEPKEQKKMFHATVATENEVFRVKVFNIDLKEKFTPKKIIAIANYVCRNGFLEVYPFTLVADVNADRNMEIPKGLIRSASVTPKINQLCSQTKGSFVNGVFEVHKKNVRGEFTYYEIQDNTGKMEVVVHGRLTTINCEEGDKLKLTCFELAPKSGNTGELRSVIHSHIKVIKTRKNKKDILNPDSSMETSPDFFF
Assay: EMSA
Conditions: EMSA: 5 mM Tris-HCl pH 7.0, 1 mM EDTA, 50 mM KCl, 0.01% Triton X-100, 4 C, 15 min; gel 0.33x TBE (native PAGE with 50 mM KCl)

Sequence: GGGTTAGGGTTAGGGTTAGGGTTAGGGTTAGGGTTAGGGTTAGGGTTAGGG (double strand) [DS HTEL]
- binding signal (% bound at protein:DNA 4:1): 50

Sequence: TTGGGGCGCTTATGGGGAGGGTGGGGAGGGTGGGGAAGGTGGGGAGGAGACT (double strand) [DS NHEIII]
- binding signal (% bound at protein:DNA 4:1): 50
